Patent US20250019437A1

T1: human TREM2 (triggering receptor expressed on myeloid cells 2) (human) (UniProt Q9NZC2)
T1 sequence (looked up): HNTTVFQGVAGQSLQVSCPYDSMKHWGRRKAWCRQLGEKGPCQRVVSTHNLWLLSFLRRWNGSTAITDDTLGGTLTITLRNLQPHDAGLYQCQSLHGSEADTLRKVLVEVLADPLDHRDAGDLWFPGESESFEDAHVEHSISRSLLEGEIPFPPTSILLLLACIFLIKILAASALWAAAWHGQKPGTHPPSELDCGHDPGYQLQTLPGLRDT


Experiments:
[1] = target: T1, human TREM2 (triggering receptor expressed on myeloid cells 2) (human); assay: 1st screen, 110 nM Ab
[2] = target: T1, human TREM2 (triggering receptor expressed on myeloid cells 2) (human); assay: 2nd screen, 100 nM Ab

Binder | Binding Signal (fold over 6E7 parental antibody) [1] | Binding Signal (fold over 6E7 parental antibody) [2]
6E7 antibody affinity modulation variant V34 (antibody, V domains shown) VH: EVQLVQSGAEVKKPGESLKISCKGSGYSFTSYWIAWVRQMPGKGLEWMGIIYPGDSDTRYSPSFQGQVTISADKSISTAYLQWSSLKASDTAMYFCARQRTFYYDSSDYFDYWGQGTLVTVSS VL: DIQMTQSPSSVSASVGDRVTITCRASQGISSWLAWYQQKPGKAPKLLIYAASSLQDGVPSRFSGSGSGTDFTLTISSLQPEDFATYFCQQADSFPRTFGQGTKLEIK | 0.34 fold | 1.02 fold
6E7 antibody affinity modulation variant V35 (antibody, V domains shown) VH: EVQLVQSGAEVKKPGESLKISCKGSGYSFTSYWIAWVRQMPGKGLEWMGIIYPGDSDTRYSPSFQGQVTISADKSISTAYLQWSSLKASDTAMYFCARQRTFYYDSSDYFDYWGQGTLVTVSS VL: DIQMTQSPSSVSASVGDRVTITCRASQGISSWLAWYQQKPGKAPKLLIYAASSLQNGVPSRFSGSGSGTDFTLTISSLQPEDFATYFCQQAYSFPRTFGQGTKLEIK | 0.21 fold | 0.29 fold
6E7 antibody affinity modulation variant V47 (antibody, V domains shown) VH: EVQLVQSGAEVKKPGESLKISCKGSGYSFTSYWIAWVRQMPGKGLEWMGIIYPGDSDTRYSPSFQGQVTISADKSISTAYLQWSSLKASDTAMYFCARQRTFYYDSSDYFDYWGQGTLVTVSS VL: DIQMTQSPSSVSASVGDRVTITCRASQGISSWLAWYQQKPGKAPKLLIYAASSLQNGVPSRFSGSGSGTDFTLTISSLQPEDFATYFCQQADSFPMTFGQGTKLEIK | 0.42 fold | 0.47 fold
6E7 antibody affinity modulation variant V54 (antibody, V domains shown) VH: EVQLVQSGAEVKKPGESLKISCKGSGYSFTSQWIAWVRQMPGKGLEWMGIIYPGDSDTRYSPSFQGQVTISADKSISTAYLQWSSLKASDTAMYFCARQRTFYYDSSDYFDYWGQGTLVTVSS VL: DIQMTQSPSSVSASVGDRVTITCRASQGISSWLAWYQQKPGKAPKLLIYAASSLQNGVPSRFSGSGSGTDFTLTISSLQPEDFATYFCQQADSFPRTFGQGTKLEIK | 0.55 fold | 0.54 fold
6E7 antibody affinity modulation variant V45 (antibody, V domains shown) VH: EVQLVQSGAEVKKPGESLKISCKGSGYSFTSYWIAWVRQMPGKGLEWMGIIYPGDSDTRYSPSFQGQVTISADKSISTAYLQWSSLKASDTAMYFCARQRTFYYDSSDYFDYWGQGTLVTVSS VL: DIQMTQSPSSVSASVGDRVTITCRASQGISSFLAWYQQKPGKAPKLLIYAASSLQNGVPSRFSGSGSGTDFTLTISSLQPEDFATYFCQQADSFPRTFGQGTKLEIK | 0.43 fold | 0.53 fold
6E7 antibody affinity modulation variant V56 (antibody, V domains shown) VH: EVQLVQSGAEVKKPGESLKISCKGSGYSFTSYWIAWVRQMPGKGLEWMGIIYPGDSDTRYQPSFQGQVTISADKSISTAYLQWSSLKASDTAMYFCARQRTFYYDSSDYFDYWGQGTLVTVSS VL: DIQMTQSPSSVSASVGDRVTITCRASQGISSWLAWYQQKPGKAPKLLIYAASSLQNGVPSRFSGSGSGTDFTLTISSLQPEDFATYFCQQADSFPRTFGQGTKLEIK | 0.23 fold | 0.59 fold
6E7 antibody affinity modulation variant V43 (antibody, V domains shown) VH: EVQLVQSGAEVKKPGESLKISCKGSGYSFTSYWIAWVRQMPGKGLEWMGIIYPGDSGTRYSPSFQGQVTISADKSISTAYLQWSSLKASDTAMYFCARQRTFYYDSSDYFDYWGQGTLVTVSS VL: DIQMTQSPSSVSASVGDRVTITCRASQGISSWLAWYQQKPGKAPKLLIYAASSLQNGVPSRFSGSGSGTDFTLTISSLQPEDFATYFCQQADSFPRTFGQGTKLEIK | 0.2 fold | 0.33 fold
6E7 antibody affinity modulation variant V42 (antibody, V domains shown) VH: EVQLVQSGAEVKKPGESLKISCKGSGYSFTSAWIAWVRQMPGKGLEWMGIIYPGDSDTRYSPSFQGQVTISADKSISTAYLQWSSLKASDTAMYFCARQRTFYYDSSDYFDYWGQGTLVTVSS VL: DIQMTQSPSSVSASVGDRVTITCRASQGISSWLAWYQQKPGKAPKLLIYAASSLQNGVPSRFSGSGSGTDFTLTISSLQPEDFATYFCQQADSFPRTFGQGTKLEIK | 0.45 fold | 0.41 fold
6E7 antibody affinity modulation variant V55 (antibody, V domains shown) VH: EVQLVQSGAEVKKPGESLKISCKGSGYSFTSYWIAWVRQMPGKGLEWMGIIYPGDSDTIYSPSHQGQVTISADKSISTAYLQWSSLKASDTAMYFCARQRTFYYDSSDYFDYWGQGTLVTVSS VL: DIQMTQSPSSVSASVGDRVTITCRASQGISSWLAWYQQKPGKAPKLLIYAASSLQNGVPSRFSGSGSGTDFTLTISSLQPEDFATYFCQQADSFPRTFGQGTKLEIK | 0.24 fold | 0.66 fold
6E7 antibody affinity modulation variant V44 (antibody, V domains shown) VH: EVQLVQSGAEVKKPGESLKISCKGSGYSFTSYWIAWVRQMPGKGLEWMGIIYPSDSDTRYSPSFQGQVTISADKSISTAYLQWSSLKASDTAMYFCARQRTFYYDSSDYFDYWGQGTLVTVSS VL: DIQMTQSPSSVSASVGDRVTITCRASQGISSWLAWYQQKPGKAPKLLIYAASSLQNGVPSRFSGSGSGTDFTLTISSLQPEDFATYFCQQADSFPRTFGQGTKLEIK | 0.65 fold | 0.52 fold
6E7 antibody affinity modulation variant V46 (antibody, V domains shown) VH: EVQLVQSGAEVKKPGESLKISCKGSGYSFTSYWIAWVRQMPGKGLEWMGIIYPGDSDTRYSPSFQGQVTISADKSISTAYLQWSSLKASDTAMYFCARQRTFYYDSSDYFDYWGQGTLVTVSS VL: DIQMTQSPSSVSASVGDRVTITCRASQGISSWLAWYQQKPGKAPKLLIYAASTLQNGVPSRFSGSGSGTDFTLTISSLQPEDFATYFCQQADSFPRTFGQGTKLEIK | 0.83 fold | 0.96 fold

Results, then the binder that gave them:

Binding Signal (fold over 6E7 parental antibody) [1] | Binding Signal (fold over 6E7 parental antibody) [2] | Binder
0.8 fold | 0.84 fold | 6E7 antibody affinity modulation variant V67 (antibody, V domains shown) VH: EVQLVQSGAEVKKPGESLKISCKGSGYSFTSYWIAWVRQMPGKGLEWMGMIYPGDSDTRYSPSFQGQVTISADKSISTAYLQWSSLKASDTAMYFCARQRTFYYDSSDYFDYWGQGTLVTVSS VL: DIQMTQSPSSVSASVGDRVTITCRASQGISSWLAWYQQKPGKAPKLLIYAASSLQNGVPSRFSGSGSGTDFTLTISSLQPEDFATYFCQQADSFPRTFGQGTKLEIK
0.41 fold | 0.4 fold | 6E7 antibody affinity modulation variant V69 (antibody, V domains shown) VH: EVQLVQSGAEVKKPGESLKISCKGSGYSFTSYWIAWVRQMPGKGLEWMGIIYPGDSDTRYSPSFQGQVTISADKSISTAYLQWSSLKASDTAMYFCARQRTFYYDSSDYFDYWGQGTLVTVSS VL: DIQMTQSPSSVSASVGDRVTITCRASQGISSYLAWYQQKPGKAPKLLIYAASSLQNGVPSRFSGSGSGTDFTLTISSLQPEDFATYFCQQADSFPRTFGQGTKLEIK
0.84 fold | 0.85 fold | 6E7 antibody affinity modulation variant V57 (antibody, V domains shown) VH: EVQLVQSGAEVKKPGESLKISCKGSGYSFTSYWIAWVRQMPGKGLEWMGIIYPGDSDTRYSPSFQGQVTISADKSISTAYLQWSSLKASDTAMYFCARQRTFYYDSSDYFDYWGQGTLVTVSS VL: DIQMTQSPSSVSASVGDRVTITCAASQGISSWLAWYQQKPGKAPKLLIYAASSLQNGVPSRFSGSGSGTDFTLTISSLQPEDFATYFCQQADSFPRTFGQGTKLEIK
0.28 fold | 0.68 fold | 6E7 antibody affinity modulation variant V58 (antibody, V domains shown) VH: EVQLVQSGAEVKKPGESLKISCKGSGYSFTSYWIAWVRQMPGKGLEWMGIIYPGDSDTRYSPSFQGQVTISADKSISTAYLQWSSLKASDTAMYFCARQRTFYYDSSDYFDYWGQGTLVTVSS VL: DIQMTQSPSSVSASVGDRVTITCRASQGISSWLAWYQQKPGKAPKLLIYKASSLQNGVPSRFSGSGSGTDFTLTISSLQPEDFATYFCQQADSFPRTFGQGTKLEIK
0.44 fold | 0.43 fold | 6E7 antibody affinity modulation variant V68 (antibody, V domains shown) VH: EVQLVQSGAEVKKPGESLKISCKGSGYSFTSYWIAWVRQMPGKGLEWMGIIYPGDSDTRYSPSFQGQVTISADKSISTAYLQWSSLKASDTAMYFCARQRTFRYDSSDYFDYWGQGTLVTVSS VL: DIQMTQSPSSVSASVGDRVTITCRASQGISSWLAWYQQKPGKAPKLLIYAASSLQNGVPSRFSGSGSGTDFTLTISSLQPEDFATYFCQQADSFPRTFGQGTKLEIK
0.25 fold | 0.74 fold | 6E7 antibody affinity modulation variant V66 (antibody, V domains shown) VH: EVQLVQSGAEVKKPGESLKISCKGSGTSFTSYWIAWVRQMPGKGLEWMGIIYPGDSDTRYSPSFQGQVTISADKSISTAYLQWSSLKASDTAMYFCARQRTFYYDSSDYFDYWGQGTLVTVSS VL: DIQMTQSPSSVSASVGDRVTITCRASQGISSWLAWYQQKPGKAPKLLIYAASSLQNGVPSRFSGSGSGTDFTLTISSLQPEDFATYFCQQADSFPRTFGQGTKLEIK
0.19 fold | 0.6 fold | 6E7 antibody affinity modulation variant V59 (antibody, V domains shown) VH: EVQLVQSGAEVKKPGESLKISCKGSGYSFTSYWIAWVRQMPGKGLEWMGIIYPGDSDTRYSPSFQGQVTISADKSISTAYLQWSSLKASDTAMYFCARQRTFYYDSSDYFDYWGQGTLVTVSS VL: DIQMTQSPSSVSASVGDRVTITCRASQGISSWLAWYQQKPGKAPKLLIYAASSLQNGVPSRFSGSGSGTDFTLTISSLQPEDFATYFCMQADSFPRTFGQGTKLEIK
